Experimental findings from patent US20260015405A1 (TRANSGENE, published 2026) are described below.

Sequences and labels used below:
B1: construct encoded by pTG19967: [N-terminus]-[coiled-coil neck domain]-[linker]-[CD40L] (ligand)
chain: AEMKTYSHRTMPSACTLVMCSSVESDVASLRQQVEALQGQVQHLQAAFSQYKKVEGGGSGGGSGGGSNPQIAAHVISEASSKTTSVLQWAEKGYYTMSNNLVTLENGKQLTVKRQGLYYIYAQVTFCSNREASSQAPFIASLCLKSPGRFERILLRAANTHSSAKPCGQQSIHLGGVFELQPGASVFVNVTDPSQVSHGTGFTSFGLLKL
B2: construct encoded by pTG19969: [N-terminus]-[collagen domain(12)]-[coiled-coil neck domain]-[linker]-[CD40L] (ligand)
chain: AEMKTYSHRTMPSACTLVMCSSVESGQAGPVGPKGDNGSVGEPGPKGDTGPSGPPGPPGVPDVASLRQQVEALQGQVQHLQAAFSQYKKVEGGGSGGGSGGGSNPQIAAHVISEASSKTTSVLQWAEKGYYTMSNNLVTLENGKQLTVKRQGLYYIYAQVTFCSNREASSQAPFIASLCLKSPGRFERILLRAANTHSSAKPCGQQSIHLGGVFELQPGASVFVNVTDPSQVSHGTGFTSFGLLKL
B3: construct encoded by pTG20038: [N-terminus]-[collagen domain(6 + N-Gly)]-[coiled-coil neck domain]-[CD40L] (ligand)
chain: AEMKTYSHRTMPSACTLVMCSSVESGQAGPVGPKGDNGSVGEPDVASLRQQVEALQGQVQHLQAAFSQYKKVENPQIAAHVISEASSKTTSVLQWAEKGYYTMSNNLVTLENGKQLTVKRQGLYYIYAQVTFCSNREASSQAPFIASLCLKSPGRFERILLRAANTHSSAKPCGQQSIHLGGVFELQPGASVFVNVTDPSQVSHGTGFTSFGLLKL
notes: Tested as clarified HeLa supernatant
B4: construct encoded by pTG20039: [N-terminus]-[collagen domain(6 - N-Gly)]-[coiled-coil neck domain]-[CD40L] (ligand)
chain: B3 chain with Q27P, A28K, P30D, V31T, K34S, D36P, N37P, S39P, V40P, E42V
notes: as for B3
B5: construct encoded by pTG20041: [N-terminus]-[collagen domain(12bis)]-[coiled-coil neck domain]-[CD40L] (ligand)
chain: AEMKTYSHRTMPSACTLVMCSSVESGPLGKQGNIGPQGKPGPKGEAGPKGEVGAPGMQGSADVASLRQQVEALQGQVQHLQAAFSQYKKVENPQIAAHVISEASSKTTSVLQWAEKGYYTMSNNLVTLENGKQLTVKRQGLYYIYAQVTFCSNREASSQAPFIASLCLKSPGRFERILLRAANTHSSAKPCGQQSIHLGGVFELQPGASVFVNVTDPSQVSHGTGFTSFGLLKL
notes: as for B3
B6: construct encoded by pTG20042: [N-terminus]-[collagen domain(30)]-[coiled-coil neck domain]-[CD40L] (ligand)
chain: AEMKTYSHRTMPSACTLVMCSSVESGLPGRDGRDGREGPRGEKGDPGLPGAAGQAGMPGQAGPVGPKGDNGSVGEPGPKGDTGPSGPPGPPGVPGPAGREGPLGKQGNIGPQGKPDVASLRQQVEALQGQVQHLQAAFSQYKKVENPQIAAHVISEASSKTTSVLQWAEKGYYTMSNNLVTLENGKQLTVKRQGLYYIYAQVTFCSNREASSQAPFIASLCLKSPGRFERILLRAANTHSSAKPCGQQSIHLGGVFELQPGASVFVNVTDPSQVSHGTGFTSFGLLKL
notes: as for B3
B7: construct encoded by pTG19968: [N-terminus]-[collagen domain(12)]-[coiled-coil neck domain]-[CD40L] (ligand)
chain: AEMKTYSHRTMPSACTLVMCSSVESGQAGPVGPKGDNGSVGEPGPKGDTGPSGPPGPPGVPDVASLRQQVEALQGQVQHLQAAFSQYKKVENPQIAAHVISEASSKTTSVLQWAEKGYYTMSNNLVTLENGKQLTVKRQGLYYIYAQVTFCSNREASSQAPFIASLCLKSPGRFERILLRAANTHSSAKPCGQQSIHLGGVFELQPGASVFVNVTDPSQVSHGTGFTSFGLLKL
B8: construct encoded by pTG19966: [N-terminus]-[coiled-coil neck domain]-[CD40L] (ligand)
chain: AEMKTYSHRTMPSACTLVMCSSVESDVASLRQQVEALQGQVQHLQAAFSQYKKVENPQIAAHVISEASSKTTSVLQWAEKGYYTMSNNLVTLENGKQLTVKRQGLYYIYAQVTFCSNREASSQAPFIASLCLKSPGRFERILLRAANTHSSAKPCGQQSIHLGGVFELQPGASVFVNVTDPSQVSHGTGFTSFGLLKL
notes: Tested as clarified HeLa supernatant, oligomeric state mixed; It was detected by anti-FLAG immunoblot
B9: construct encoded by pTG19325: fusion protein SPD (M1-G257, P35247 numbering)-CD40L (H47 to L261 from P29965 numbering) (ligand)
chain: AEMKTYSHRTMPSACTLVMCSSVESGLPGRDGRDGREGPRGEKGDPGLPGAAGQAGMPGQAGPVGPKGDNGSVGEPGPKGDTGPSGPPGPPGVPGPAGREGPLGKQGNIGPQGKPGPKGEAGPKGEVGAPGMQGSAGARGLAGPKGERGVPGERGVPGNTGAAGSAGAMGPQGSPGARGPPGLKGDKGIPGDKGAKGESGLPDVASLRQQVEALQGQVQHLQAAFSQYKKVELFPNGHRRLDKIEDERNLHEDFVFMKTIQRCNTGERSLSLLNCEEIKSQFEGFVKDIMLNKEETKKENSFEMQKGDQNPQIAAHVISEASSKTTSVLQWAEKGYYTMSNNLVTLENGKQLTVKRQGLYYIYAQVTFCSNREASSQAPFIASLCLKSPGRFERILLRAANTHSSAKPCGQQSIHLGGVFELQPGASVFVNVTDPSQVSHGTGFTSFGLLKL
notes: Tested as clarified, unpurified supernatant of infected/transfected HeLa cells; concentration unknown; The construct begins at M1 of SPD, so the entry may include the native signal peptide; The form range is that of the CD40L part

Numbering of substitutions follows the chain as printed.

In this experiment the target is T1, CD40-Fc (immobilized recombinant human CD40) (human, UniProt P25942 21-193, limits assumed).
T1 construct: Coated on the ELISA plate
T1 sequence (P25942 21-193 limits assumed): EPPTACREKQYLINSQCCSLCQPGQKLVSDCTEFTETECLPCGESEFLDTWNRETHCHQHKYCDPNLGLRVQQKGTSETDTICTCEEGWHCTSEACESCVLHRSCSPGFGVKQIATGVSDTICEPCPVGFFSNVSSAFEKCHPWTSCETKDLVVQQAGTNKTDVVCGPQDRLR
The experiment is described as follows: ELISA, CD40-Fc coated, HeLa supernatant, detection with non-competitive anti-CD40L. On the technique in general: In an ELISA, binding on a coated surface is turned into a signal by an enzyme label.
Turning to B1, the binding result is listed as “binds”.

With B2, the binding result is given as “binds”.

B3: the binding result was “binds”.

In the case of B4, the binding result is given as “binds”.

As for B5, the binding result was “binds”.

With B6, the binding result is reported as “binds”.

In the case of B7, the binding result is given as “binds”.

As for B8, the binding result is reported as “binds”.

For B9, the binding result is on record as “binds”.
